Assay [1] has as its target T1, full-length rat PDGFRB on cells (rat, UniProt Q05030 32-1097).
T1 chain: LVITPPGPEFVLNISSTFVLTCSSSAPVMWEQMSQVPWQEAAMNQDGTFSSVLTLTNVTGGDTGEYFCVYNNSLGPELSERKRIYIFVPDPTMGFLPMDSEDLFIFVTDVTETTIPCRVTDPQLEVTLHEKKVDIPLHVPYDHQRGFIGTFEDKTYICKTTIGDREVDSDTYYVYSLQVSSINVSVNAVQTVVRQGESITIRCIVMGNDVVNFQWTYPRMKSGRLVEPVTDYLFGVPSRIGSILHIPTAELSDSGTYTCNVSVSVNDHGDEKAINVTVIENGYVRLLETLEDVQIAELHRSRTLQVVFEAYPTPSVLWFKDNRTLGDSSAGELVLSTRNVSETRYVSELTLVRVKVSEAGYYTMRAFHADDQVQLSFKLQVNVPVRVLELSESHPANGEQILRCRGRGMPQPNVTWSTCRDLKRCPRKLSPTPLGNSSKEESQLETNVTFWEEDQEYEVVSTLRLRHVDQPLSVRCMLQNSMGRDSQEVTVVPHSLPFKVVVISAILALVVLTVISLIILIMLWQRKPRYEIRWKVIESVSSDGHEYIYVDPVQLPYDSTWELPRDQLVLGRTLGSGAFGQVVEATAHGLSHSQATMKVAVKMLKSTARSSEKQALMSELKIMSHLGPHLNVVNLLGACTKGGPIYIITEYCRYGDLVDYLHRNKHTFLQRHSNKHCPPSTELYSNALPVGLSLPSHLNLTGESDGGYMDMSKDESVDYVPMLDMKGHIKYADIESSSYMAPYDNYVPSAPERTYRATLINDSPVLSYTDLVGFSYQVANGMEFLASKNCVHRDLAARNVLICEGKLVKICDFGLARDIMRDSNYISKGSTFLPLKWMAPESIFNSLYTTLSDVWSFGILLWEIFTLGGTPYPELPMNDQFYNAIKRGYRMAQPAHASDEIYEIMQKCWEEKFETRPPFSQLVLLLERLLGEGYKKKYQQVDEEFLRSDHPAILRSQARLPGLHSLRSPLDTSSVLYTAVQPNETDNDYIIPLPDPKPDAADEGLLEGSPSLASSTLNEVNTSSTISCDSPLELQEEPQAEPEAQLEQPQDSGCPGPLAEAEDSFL
The assay is described as follows: cell binding; SCC-rPDGFRβ cells.

Assay [2] has as its target T2, recombinant rPDGFRB ectodomain (rat, UniProt Q05030 32-531).
T2 chain: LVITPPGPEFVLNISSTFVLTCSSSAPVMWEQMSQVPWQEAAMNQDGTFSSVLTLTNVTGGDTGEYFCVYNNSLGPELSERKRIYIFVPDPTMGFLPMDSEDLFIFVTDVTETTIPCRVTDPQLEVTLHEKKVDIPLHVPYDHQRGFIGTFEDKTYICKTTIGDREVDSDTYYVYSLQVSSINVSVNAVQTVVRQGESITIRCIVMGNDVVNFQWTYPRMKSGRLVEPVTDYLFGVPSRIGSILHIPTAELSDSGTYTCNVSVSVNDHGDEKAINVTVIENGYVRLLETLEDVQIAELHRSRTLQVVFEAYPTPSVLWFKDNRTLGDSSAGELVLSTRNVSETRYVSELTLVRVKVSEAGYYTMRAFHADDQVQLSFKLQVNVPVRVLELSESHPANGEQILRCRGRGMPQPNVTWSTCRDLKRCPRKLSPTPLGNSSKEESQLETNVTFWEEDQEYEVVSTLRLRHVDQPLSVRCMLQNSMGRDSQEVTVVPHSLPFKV
Put plainly: binding to immobilized ectodomain.

Assay [3] has as its target T3, recombinant hPDGFRB ectodomain (human, UniProt P09619 33-532).
T3 chain: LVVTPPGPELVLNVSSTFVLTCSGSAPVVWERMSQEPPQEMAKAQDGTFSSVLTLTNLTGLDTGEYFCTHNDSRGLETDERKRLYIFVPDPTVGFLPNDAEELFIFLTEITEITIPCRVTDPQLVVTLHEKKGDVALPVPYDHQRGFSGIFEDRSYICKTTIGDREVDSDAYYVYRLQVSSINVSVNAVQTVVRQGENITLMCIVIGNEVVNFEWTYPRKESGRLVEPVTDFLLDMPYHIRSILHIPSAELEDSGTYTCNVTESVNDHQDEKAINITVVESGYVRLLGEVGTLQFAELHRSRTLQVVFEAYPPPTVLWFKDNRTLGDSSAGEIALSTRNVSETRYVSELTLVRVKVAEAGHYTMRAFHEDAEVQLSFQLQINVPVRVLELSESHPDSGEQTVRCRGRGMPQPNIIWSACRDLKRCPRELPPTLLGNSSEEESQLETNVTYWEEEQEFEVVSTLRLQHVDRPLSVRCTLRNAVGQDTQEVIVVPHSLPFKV
Put plainly: binding to immobilized ectodomain.

The target of assay [4] is full-length human PDGFRB on cells (human, UniProt P09619 33-1106). The assay is described as follows: cell binding; SCC-hPDGFRβ cells.

B1: SP31P (VHH)
VHH: EVQLVESGGGLVQAGGSLRLSCAASRGTFGTYIMGWFRQAPGKEREFVAAISWRGANTYYGYSVKGRFTISRDNAKNTMYLQMADLKPEDTADYYCGVHLNGTPYYYASGYRYWGQGTQVTVSS
Consider B1, for which the Kd (usually the equilibrium constant for the complex coming apart) was 31.8 nM in assay [1] and 276 nM in assay [2].

B2: SP30P (VHH)
VHH: EVQLVESGGGLVQAGGSLRLSCAASRGTFGTDIMGWFRQAPGKEREFVAAISWRGANTYYGYSVKGRFTISRDNAKNTMYLQMADLKPEDTADYYCGVHLNGTPYYYASGYRYWGQGTQVTVSS
Turning to B2, the dissociation constant (Kd) in assay [2] worked out at 12.2 nM.

B3: SP27P (VHH)
VHH: EVQLVESGGGLVQIGDSLRLSCAASGGTFNRYGMGWFRQAPGKEREFVAAIRWDGVDTNYADFVKGRFTISRYNAKNTAYLQMNSLKPEDTAVYYCAADRRGLYTKHAHRYDYWGQGTQVTVSS
Consider B3, for which, in assay [2], the Kd stood at 25.5 nM.

B4: SP02P (VHH)
VHH: EVQLVESGGGLVQAGGSLRLSCAASESISSIEQMGWFRQAPGKQRALVAINTYGGRTVYTNSVEGRFTMSRDSAKNMVYLQMTSLEPEDTAVYYCYAQTTAWRGGVWGQGTQVTVSS
As to B4, the Kd in assay [3] is 6.2 nM.

B5: SP05P (VHH)
VHH: EVQLVESGGGLVQAGGSLRLSCAASGRTSFSGYAMAWFRQAPGKERDFVASITWSYGYTYYTDSAQGRFTISRDSAKNTVYLEMNSLKPEDTAVYYCAADPKASRFRILREYAYWGQGTQVTVSS
Turning to B5, the Kd in assay [3] came out at 9.2 nM.

B6: SP20P (VHH)
VHH: EVQLVESGGGLVQAGGSLRLSCVISGRTSPTYPMGWFRQSPGNEREFVASINWSGGWRNYADSVKDRFTISRDDAKNTVYLQMNSLKPEDTAVYYCARGQYSSGTPVYAHEYAYWGQGTQVTVSS
As to B6, the Kd in assay [3] worked out at 3.8 nM.

B7: SP28P (VHH)
VHH: EVQLVESGGGLVQAGGSLRLSCAASGSIVSFNGINWYRQAPGKQREWVGGITQGGNTMYADSVRGRFTISRDNTKNTMYLQMNSLKPEDTAVYYCRRPPVASWGQGTQVTVSS
Consider B7, for which the Kd in assay [1] is 0.5 nM; in assay [2], 6 nM.

B8: SP36P (VHH)
VHH: EVQLVESGGGLVQAGGSLRLSCTPSITTAGTTIMAWFRQAPGNEREFVAAIWGSKTAYGDSMKGRLTISRDNVRDNGQKTVFLQMNNLQLQDTATYYCAASSGGYVHSSTSYEIWGRGTQVTVSS
For B8, the Kd was 76.6 nM in assay [1] and 31 nM in assay [2].

B9: SP13P (VHH)
VHH: EVQLVESGGGLVQPGGSLRLSCAASESIFSINYMAWYRQAPGKQRELVAFSIDGSSTNYVDSVRGRFTASRDNAENTLYLQMNSLKPEDTAVYYCYAQGNTWAAGVWGQGTQVTVSS
Turning to B9, the Kd was 10.4 nM in assay [4] and 9.3 nM in assay [3].

B10: SP14P (VHH)
VHH: EVQLVESGGGLVQAGDSLRLSCVVSGLTFSRYGMGWFRQATGKEREFVGGISVGSSGTMYPNSVKGRFTISRDNAKSTVYLQMNSLKPEDTAVYFCAAIDQGSFVQQRDYRYWGQGTQVTVSS
Consider B10, for which, in assay [3], the Kd stood at 8.6 nM.

B11: SP01P (VHH)
VHH: EVQLVESGGGLAQAGGSLRLSCVASGNIDSANGMAWYRQAPGKQRELVAHITSGTSYYVASVEGRFTISRANAKDTWYLQMNSLKPEDTGVYYCFPIGLSAHWSQGTQVTVSS
In the case of B11, the Kd was 7.8 nM in assay [4] and 20.4 nM in assay [3].

B12: SP26P (VHH)
VHH: EVQLVESGGGLVQAGGSLRLSCAASGRSFSSSVMGWFRQTPGKEREFVAATRWTAASTHYADSVKGRFTISRDHAENAVFLQMNSLKPEDTAVYYCAAGNYLDTAQYRYNYWGQGTQVTVSS
modifications: In the competition assay the reporter copy carried IRDye800 on the C-terminal cysteine, which is not in the letters.
In assay [1], B12 returned a Kd of 0.3 nM.

These data come from US20240325562A1 (published 2024).
